Results on 2 substances are retold here after US20110288005A1.

In the experiment the target is bovine pancreatic trypsin (Sigma T1426) (bovine) (UniProt P00760). The experiment in a line: cell-based or functional assay.
bovine pancreatic trypsin (Sigma T1426) (bovine), sequence (P00760 24-246): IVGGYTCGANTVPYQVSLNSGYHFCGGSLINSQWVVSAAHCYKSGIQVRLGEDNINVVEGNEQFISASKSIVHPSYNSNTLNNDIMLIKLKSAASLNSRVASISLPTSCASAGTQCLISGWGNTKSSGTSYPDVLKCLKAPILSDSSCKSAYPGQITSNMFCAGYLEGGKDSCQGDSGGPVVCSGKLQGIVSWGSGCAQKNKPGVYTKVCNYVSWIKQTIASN

aaT-XTEN_AE288 registered a % Activity (compared to positive control plasma-derived aaT) of 65% and an IC50 (µM), equilibrium trypsin inhibition assay of 0.82 µM.

Take aaT-XTEN_AE576: the % Activity (compared to positive control plasma-derived aaT) turned out to be 106% and the IC50 (µM), equilibrium trypsin inhibition assay was 0.5 µM.
